Molecular target: T1, H2-K^b (Mus musculus, UniProt P01901)
T1 sequence (P01901 22-369): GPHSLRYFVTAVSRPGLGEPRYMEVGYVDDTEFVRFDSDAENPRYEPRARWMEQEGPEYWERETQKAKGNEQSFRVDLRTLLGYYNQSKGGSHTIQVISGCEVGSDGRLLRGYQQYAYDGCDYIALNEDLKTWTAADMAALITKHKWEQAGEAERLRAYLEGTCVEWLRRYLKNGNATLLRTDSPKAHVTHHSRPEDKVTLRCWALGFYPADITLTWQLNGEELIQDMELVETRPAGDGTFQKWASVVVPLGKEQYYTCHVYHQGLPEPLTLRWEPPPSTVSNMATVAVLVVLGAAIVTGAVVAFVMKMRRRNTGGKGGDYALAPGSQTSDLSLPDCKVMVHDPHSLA
T1 sequence (P01887 21-119 partner): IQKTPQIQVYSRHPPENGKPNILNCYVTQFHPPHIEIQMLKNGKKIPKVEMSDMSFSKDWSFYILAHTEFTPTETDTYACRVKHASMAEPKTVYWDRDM
Experiment: Peptide binding assay (assembly/stabilization assay in RMA-S cell lysate)
Conditions: in vitro binding assay, compared with positive control peptide SEV
Description: Binding of each peptide to H2-K^b was performed using the assembly assay as described (29). This assay is based on the observation that, in a detergent lysate of RMA-S cells, K^b molecules are unstable and dissociate after an overnight incubation at 4° C. unless a stabilising (K^b-binding) peptide is added at the time of lysis. Only stabilised K^b molecules can therefore be recovered by immunoprecipitation with mAb Y3 after overnight incubation. The amount of recovered K^b is directly proportional to the amount of peptide bound, and the concentration of peptide required to effect 50% maximal recovery represents an approximate binding affinity (29). Recovery of H2-K^b heavy chains (HC) was quantitated after immunoprecipitation and SDS PAGE using AIDA (Fuji).

Row | Sequence | binding to H2-K^b
1 | LNIYYRRL [peptide 2] | comparable to the positive control
2 | SNWYFNHL [peptide 1] | comparable to the positive control

From patent US7816334B2, “Materials and methods relating to immune responses to fusion proteins” (Cancer Research Technology Limited, priority 2000, dated 2010)
